Measured values from FireProtDB (doi:10.1006/jmbi.1999.2732).

Details: Homo sapiens, Thermal, DSC, Sodium phosphate 50 mM, reversible: no, whole UniProt chain shown

B1: Annexin A1 wild type, P04083 (protein)
chain: MAMVSEFLKQAWFIENEEQEYVQTVKSSKGGPGSAVSPYPTFNPSSDVAALHKAIMVKGVDEATIIDILTKRNNAQRQQIKAAYLQETGKPLDETLKKALTGHLEEVVLALLKTPAQFDADELRAAMKGLGTDEDTLIEILASRTNKEIRDINRVYREELKRDLAKDITSDTSGDFRNALLSLAKGDRSEDFGVNEDLADSDARALYEAGERRKGTDVNVFNTILTTRSYPQLRRVFQKYTKYSKHDMNKVLDLELKGDIEKCLTAIVKCATSKPAFFAEKLHQAMKGVGTRHKALIRIMVSRSEIDMNDIKAFYQKMYGISLCQAILDETKGDYEKILVALCGGN
Tm (pH 3.2): 41.1 °C
unfolding enthalpy (calorimetric) (pH 3.2): 102 kcal/mol
unfolding enthalpy (van 't Hoff) (pH 3.2): 101 kcal/mol
Tm (pH 3.4): 48.5 °C
unfolding enthalpy (calorimetric) (pH 3.4): 139 kcal/mol
unfolding enthalpy (van 't Hoff) (pH 3.4): 119 kcal/mol
Tm (pH 3.8): 56.4 °C
unfolding enthalpy (calorimetric) (pH 3.8): 152 kcal/mol
unfolding enthalpy (van 't Hoff) (pH 3.8): 142 kcal/mol
Tm (pH 4.5): 62.3 °C
unfolding enthalpy (calorimetric) (pH 4.5): 192 kcal/mol
unfolding enthalpy (van 't Hoff) (pH 4.5): 200 kcal/mol
Tm (pH 5): 62.7 °C
unfolding enthalpy (calorimetric) (pH 5): 203 kcal/mol
unfolding enthalpy (van 't Hoff) (pH 5): 206 kcal/mol
Tm (pH 6): 61.8 °C
unfolding enthalpy (calorimetric) (pH 6): 197 kcal/mol
unfolding enthalpy (van 't Hoff) (pH 6): 224 kcal/mol
Tm (pH 7): 59.9 °C
unfolding enthalpy (calorimetric) (pH 7): 200 kcal/mol
unfolding enthalpy (van 't Hoff) (pH 7): 220 kcal/mol
Tm (pH 8): 58.5 °C
unfolding enthalpy (calorimetric) (pH 8): 197 kcal/mol
unfolding enthalpy (van 't Hoff) (pH 8): 215 kcal/mol
